US6790824B1, “Cytokines having neurotrophic activity” (Biopharm Gesellschaft zur biotechnologischen Entwicklung …, priority 1997, dated 2004)
Entries after “also recorded” stand apart in the source; their conditions may differ.

Columns and labels:
[1] = system: embryonic chicken dorsal root ganglia (DRG) neurons; assay: Survival of dissociated embryonic chick dorsal root ganglia (DRG) neurons, 48 h, counting of surviving neurons; type: cell-based; conditions: for survival promoting effect of the single factor: factor added alone, dose-response; for survival of DRG neurons in combination with NGF: NGF 10 ng/ml (saturating); for survival of DRG neurons in combination with NT-3: NT-3 10 ng/ml (saturating); for survival effect as share of the (maximal) NGF effect: single factor; for effect on DRG neuron survival when added together with GDF-5: factor at saturating concentration plus GDF-5 20 ng/ml
Description: Dissociated cultures of embryonic chicken dorsal root ganglia (DRG) were generated as described in details by Krieglstein and Unsicker (Neurochem. Res., 21(7) (1996) 843-850). Briefly, DRGs from white Leghorn chick embryos (day 8) were dissected in Ca^2+-Mg^2+ free Hanks' balanced salt solution. After incubation in 0.08% trypsin for 15 min ganglia were dissociated by trituration. Cells were seeded in polyomithin-laminin coated 96-well microtiter plates (A/2 Costar) at a density of 1,200 cells/well. Growth factors were applied at the time of plating in a final volume of […] Dulbecco's Modified Eagle's Medium supplemented with 0.25% bovine serum albumin, N1 additives and 100 U/ml penicillin. As a positive control, nerve growth factor (NGF) was used at the saturating concentration of 5 ng/ml. After 48 h of incubation at 37° C. in a humidified atmosphere containing 5% CO2, cultures were fixed with 2.5% glutaraldehyde. Neuronal cells were identified by their phase-bright and neurite-bearing morphologies and counted within 30% of the total surface area using phase contrast microscopy. In the first set of experiments we tested the survival promoting effect of several growth factors of the bone morphogenetic protein family.
(§1) Embryonic chick ciliary (CG), dorsal root (DRG), and sympathetic (SG) ganglia at embryonic day(s) (E) 8, 10, and 12, were dissected, freed from nerve roots and connective tissue and collected in CME. Ganglia were incubated in trypsin (ICN), washed and dissociated by trituration using fire-polished Pasteur pipettes. Cultures were set up in 96-well microtiter plates (Costar, A/2), precoated with poly-L-ornithine and laminin at a density of 1,200-1,500 cells/well in DMEM supplemented with N1 additives, 0.25% BSA, and 0.1% PSN (DME/N1) and incubated at 37° C. in a 5% CO2 incubator.
(§2) At appropriate times (CG: 24 h, DRG: 48 h, SG: 72 h) cultures were fixed by addition of 2.5% glutardialdehyde in phosphate buffered saline (PBS). Numbers of surviving neurons were determined by direct counting of 30% of the surface area using phase contrast microscopy.
Dissociated cultures of embryonic chicken dorsal root ganglia (DRGs) were generated as described in details by Krieglstein and Unsicker (Dev. Brain. Rees. 93 (1996) 10-17). Briefly, DRGs were dissected in Ca^2+-Mg^2+ free Hank's balanced salt solution (CMF). After incubation in 0.08% trypsin (BioWhittaker) for 15 min, ganglia were dissociated by gentle trituration using fire-polished Pasteur pipettes. Cells in suspension (neuron/non-neuron ratio 1:2) were seeded in polyomithin-laminin coated 96-well microtiter plates (A/2 Costar) at a density of 1,200 cells/well. Growth factors were applied at the time of plating in a final volume of 50 μl Dulbecco's Modified Eagle's Medium supplemented with 0.25% bovine serum albumin, N1 additives (Bottenstein et al., Exp. Cell Res. 125 (1980) 183-190) and 100 U/ml penicillin. As a positive control, nerve growth factor (NGF) was used at the saturating concentration of 10 ng/ml. After 48 h of incubation at 37° C. in a humidified atmosphere containing 5% CO2, cultures were fixed with 2.5% glutaraldehyde in phosphate buffered saline (PBS). Neuronal cells were identified by their phase-bright and neurite-bearing morphologies and counted within 30% of the total surface area using phase contrast microscopy. All experiments were performed in at least triplicate in two independent experiments. Data are presented as mean±SEM. Statistical comparisons were made with student's double t-test, ANOVA and MicrocalOrigin software. Differences were considered statistically significant at *P<0.05, **P<0.01, **P<0.001.

[2] = system: chick ciliary ganglionic (CG) neurons; assay: Survival of embryonic chick ciliary ganglionic (CG) neurons, 24 h, counting of surviving neurons; type: cell-based; conditions: for CG neuron survival with further addition of TGF-β: TGF-β 2.5 ng/ml, CNTF non-saturating, OSM, LIF, IL-6 at 10 ng/ml
Description: as §1, §2
Phosphatidylinositol-specific phospholipase C (PIPLC) is an enzyme that specifically cleaves glycosyl-phosphatidylinositol (GPI) linkages. Embryonic chick ciliary ganglionic neurons (E8) were isolated and seeded as described before. Neurons were incubated for 1 h at 37° C. with 1) 100 mU PIPLC or II) 100 mU PIPLC+2 ng/ml TGFβ or III) without enzyme and then growth factors were added. The number of surviving neurons was determined 24 h later.

B1: BMP-6: rh BMP-6, bone morphogenetic protein (protein, UniProt P22004 375-513, looked up)
Bone morphogenetic protein 6: SASSRRRQQSRNRSTQSQDVARVSSASDYNSSELKTACRKHELYVSFQDLGWQDWIIAPKGYAANYCDGECSFPLNAHMNATNHAIVQTLVHLMNPEYVPKPCCAPTKLNAISVLYFDDNSNVILKKYRNMVVRACGCH
survival promoting effect of the single factor ([1]; E8 chick DRG, 48 h): significant effect

B2: oncostatin M (protein, UniProt P13725 26-221, looked up)
Oncostatin-M: AAIGSCSKEYRVLLGQLQKQTDLMQDTSRLLDPYIRIQGLDVPKLREHCRERPGAFPSEETLRGLGRRGFLQTLNATLGCVLHRLADLEQRLPKAQDLERSGLNIEDLEKLQMARPNILGLRNNIYCMAQLLDNSDTAEPTKAGRGASQPPTPTPASDAFQRKLEGCRFLHGYHRFMHSVGRVFSKWGESPNRSRR
CG neuron survival with further addition of TGF-β [2]: did not increase the effects of these cytokines beyond background levels | support of CG neuron survival by the single cytokine ([2]; at 10 ng/ml, without TGF-β): did not support CG neurons

B3: BMP-12: rh BMP-12, bone morphogenetic protein (protein, UniProt Q7Z4P5 322-450, looked up)
Growth/differentiation factor …: TALAGTRTAQGSGGGAGRGHGRRGRSRCSRKPLHVDFKELGWDDWIIAPLDYEAYHCEGLCDFPLRSHLEPTNHAIIQTLLNSMAPDAAPASCCVPARLSPISILYIDAANNVVYKQYEDMVVEACGCR
survival promoting effect of the single factor ([1]; E8 chick DRG, 48 h): significant effect; also recorded: promoted the survival of a very small neuron population | survival of DRG neurons in combination with NGF ([1]; E8, 48 h): significantly increased survival of DRG neurons beyond levels maintained by the single factors | survival of DRG neurons in combination with NT-3 ([1]; E8, 48 h): significantly augmented the promoting effect of NT-3

B4: GDF-5: bone morphogenetic protein like molecule, member of the TGF-β superfamily (protein, UniProt P43026 382-501, looked up)
Growth/differentiation factor …: APLATRQGKRPSKNLKARCSRKALHVNFKDMGWDDWIIAPLEYEAFHCEGLCEFPLRSHLEPTNHAVIQTLMNSMDPESTPPTCCVPTRLSPISILFIDSANNVVYKQYEDMVVESCGCR
neuronal numbers, GDF-5 and NT-3 both at saturating concentrations ([1]; E8 chick DRG, 48 h): failed to increase neuronal numbers significantly above the levels of each single factor | survival promoting effect of the single factor ([1]; E8 chick DRG, 48 h): promoted the survival of a very small neuron population | increase in neuronal cell numbers ([1]; E8 chick DRG, 48 h, saturating concentration of 20 ng/ml, vs untreated): approximately two-fold | survival effect as share of the (maximal) NGF effect ([1]; E8 chick DRG, 48 h): about 20% | neuronal cell numbers, GDF-5 added to NGF ([1]; GDF-5 20 ng/ml plus NGF 5 ng/ml, E8, 48 h): significantly increased neuronal cell numbers above values obtained for each single factor | survival of DRG neurons in combination with NGF ([1]; E8, 48 h): significantly increased survival of DRG neurons beyond levels maintained by the single factors | survival of DRG neurons in combination with NT-3 ([1]; E8, 48 h): significantly augmented the promoting effect of NT-3 | DRG neuron survival with addition of NT-3 ([1]; various concentrations of GDF-5 plus 2.5 ng/ml NT-3, E8, 48 h): significantly increased DRG neuron survival above the NT-3 level

B5: brain-derived neurotrophic factor (protein, UniProt P23560 19-247, looked up)
Neurotrophic factor BDNF …: APMKEANIRGQGGLAYPGVRTHGTLESVNGPKAGSRGLTSLADTFEHVIEELLDEDQKVRPNEENNKDADLYTSRVMLSSQVPLEPPLLFLLEEYKNYLDAANMSMRVRRHSDPARRGELSVCDSISEWVTAADKKTAVDMSGGTVTVLEKVPVSKGQLKQYFYETKCNPMGYTKEGCRGIDKRHWNSQCRTTQSYVRALTMDSKKRIGWRFIRIDTSCVCTLTIKRGR
effect on DRG neuron survival when added together with GDF-5 ([1]; E8, 48 h): synergistic or additive effects

B6: neurotrophin-4 (protein, UniProt P34130 81-210, looked up)
Neurotrophin-4: GVSETAPASRRGELAVCDAVSGWVTDRRTAVDLRGREVEVLGEVPAAGGSPLRQYFFETRCKADNAEEGGPGAGGGGCRGVDRRHWVSECKAKQSYVRALTADAQGRVGWRWIRIDTACVCTLLSRTGRA
effect on DRG neuron survival when added together with GDF-5 ([1]; E8, 48 h): synergistic or additive effects

B7: BMP-11: rh BMP-11, bone morphogenetic protein (protein, UniProt O95390 299-407, looked up)
Growth/differentiation factor …: NLGLDCDEHSSESRCCRYPLTVDFEAFGWDWIIAPKRYKANYCSGQCEYMFMQKYPHTHLVQQANPRGSAGPCCTPTKMSPINMLYFNDKQQIIYGKIPGMVVDRCGCS
survival promoting effect of the single factor ([1]; E8 chick DRG, 48 h): significant effect

B8: BMP-4: rh BMP-4, bone morphogenetic protein (protein, UniProt P12644 293-408, looked up)
Bone morphogenetic protein 4: SPKHHSQRARKKNKNCRRHSLYVDFSDVGWNDWIVAPPGYQAFYCHGDCPFPLADHLNSTNHAIVQTLVNSVNSSIPKACCVPTELSAISMLYLDEYDKVVLKNYQEMVVEGCGCR
survival effect as share of the (maximal) NGF effect ([1]; E8 chick DRG, 48 h): approximately 35% | survival of DRG neurons in combination with NGF ([1]; E8, 48 h): significantly increased survival of DRG neurons beyond levels maintained by the single factors

B9: BMP-7: rh BMP-7, bone morphogenetic protein (protein, UniProt P18075 293-431, looked up)
Bone morphogenetic protein 7: STGSKQRSQNRSKTPKNQEALRMANVAENSSSDQRQACKKHELYVSFRDLGWQDWIIAPEGYAAYYCEGECAFPLNSYMNATNHAIVQTLVHFINPETVPKPCCAPTQLNAISVLYFDDSSNVILKKYRNMVVRACGCH
survival effect as share of the (maximal) NGF effect ([1]; E8 chick DRG, 48 h): approximately 35% | survival of DRG neurons in combination with NT-3 ([1]; E8, 48 h): significantly augmented the promoting effect of NT-3

B10: CNTF: recombinant rat (rr) CNTF, established neurotrophic factor for CG neurons (protein, UniProt P20294 1-200, looked up)
Ciliary neurotrophic factor: MAFAEQTPLTLHRRDLCSRSIWLARKIRSDLTALMESYVKHQGLNKNINLDSVDGVPVASTDRWSEMTEAERLQENLQAYRTFQGMLTKLLEDQRVHFTPTEGDFHQAIHTLMLQVSAFAYQLEELMVLLEQKIPENEADGMPATVGDGGLFEKKLWGLKVLQELSQWTVRSIHDLRVISSHQMGISALESHYGAKDKQM
CG neuron survival with further addition of TGF-β [2]: clearly augmented the efficacy of a non-saturating concentration of CNTF
